Where “and” joins values, the source holds several entries; their conditions need not be identical. Identical values can stand only once. Values belong to the substance of their own block, whether it stands above or below them.
How the values were obtained:
[1] = biological target: SIY-loaded H-2 K^b on T2 K^b cells (murine) (UniProt P01901); assay: cell-based or functional assay
[2] = biological target: dEV-8-loaded H-2 K^bm3 on T2 K^bm3 cells (murine); assay: cell-based or functional assay
[3] = biological target: SIY-loaded H-2 K^bm3 on T2 K^bm3 cells (murine); assay: cell-based or functional assay
[4] = biological target: p2Ca-loaded H-2 L^d (murine) (UniProt P01897); assay: cell-based or functional assay
[5] = biological target: QL9-loaded H-2 L^d (murine) (UniProt P01897); assay: flow cytometry on cells loaded with a titration of peptide; lower end of the titration
[6] = biological target: p2Ca-loaded H-2 L^d (murine) (UniProt P01897); assay: as above
[7] = biological target: QL9-loaded H-2 L^d (murine) (UniProt P01897); assay: direct flow cytometry on peptide-loaded RMAS-L^d cells
[8] = biological target: SIY-loaded H-2 K^bm3 on T2 K^bm3 cells (murine); assay: flow cytometry on peptide-loaded T2 K^bm3 cells
[9] = biological target: p2Ca-loaded H-2 L^d (murine) (UniProt P01897); assay: flow cytometry on cells loaded with a titration of peptide; upper end of the titration
[10] = biological target: QL9-loaded H-2 L^d (murine) (UniProt P01897); assay: direct flow cytometry on peptide-loaded RMA-S L^d cells, serial dilutions, detected with H57-FITC
[11] = biological target: unloaded H-2 L^d on RMA-S L^d cells (no peptide added) (murine) (UniProt P01897); assay: direct flow cytometry on RMA-S L^d cells without added peptide
Sequence of unloaded H-2 L^d on RMA-S L^d cells (no peptide added) (murine) (P01897 25-309): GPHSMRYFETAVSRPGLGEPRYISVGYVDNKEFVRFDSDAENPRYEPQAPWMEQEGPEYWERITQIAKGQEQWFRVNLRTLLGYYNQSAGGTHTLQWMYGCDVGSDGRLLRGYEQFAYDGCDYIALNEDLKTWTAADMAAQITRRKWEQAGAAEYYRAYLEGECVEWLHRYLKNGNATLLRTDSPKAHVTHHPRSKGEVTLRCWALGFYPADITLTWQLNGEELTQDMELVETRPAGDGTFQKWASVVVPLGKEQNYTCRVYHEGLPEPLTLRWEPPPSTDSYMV

[12] = biological target: H-2 L^d on RENCA cells, naturally loaded (murine) (UniProt P01897); assay: flow cytometry on RENCA cells cultured with 5-50 units/ml γ-IFN

Sequence of 2C TCR on 2C CTL (A2KF29 whole entry): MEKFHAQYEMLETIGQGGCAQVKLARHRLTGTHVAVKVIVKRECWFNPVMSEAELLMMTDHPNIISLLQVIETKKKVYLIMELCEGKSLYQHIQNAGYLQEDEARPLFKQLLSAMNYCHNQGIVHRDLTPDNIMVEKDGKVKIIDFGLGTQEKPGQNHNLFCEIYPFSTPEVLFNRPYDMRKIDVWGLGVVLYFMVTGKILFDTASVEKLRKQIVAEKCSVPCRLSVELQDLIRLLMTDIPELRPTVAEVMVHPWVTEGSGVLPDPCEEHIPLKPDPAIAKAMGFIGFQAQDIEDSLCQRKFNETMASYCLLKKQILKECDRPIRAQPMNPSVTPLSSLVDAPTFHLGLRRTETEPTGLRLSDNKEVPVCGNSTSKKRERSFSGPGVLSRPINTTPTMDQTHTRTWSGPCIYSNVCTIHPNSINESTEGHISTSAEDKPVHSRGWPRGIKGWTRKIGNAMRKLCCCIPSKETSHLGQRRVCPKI
Sequence of soluble divalent 2C TCR/Ig (A2KF29 whole entry, looked up, tested part not stated): as the sequence (A2KF29 whole entry) above
Sequence of SIY-loaded H-2 K^b on T2 K^b cells (murine) (P01901 22-369): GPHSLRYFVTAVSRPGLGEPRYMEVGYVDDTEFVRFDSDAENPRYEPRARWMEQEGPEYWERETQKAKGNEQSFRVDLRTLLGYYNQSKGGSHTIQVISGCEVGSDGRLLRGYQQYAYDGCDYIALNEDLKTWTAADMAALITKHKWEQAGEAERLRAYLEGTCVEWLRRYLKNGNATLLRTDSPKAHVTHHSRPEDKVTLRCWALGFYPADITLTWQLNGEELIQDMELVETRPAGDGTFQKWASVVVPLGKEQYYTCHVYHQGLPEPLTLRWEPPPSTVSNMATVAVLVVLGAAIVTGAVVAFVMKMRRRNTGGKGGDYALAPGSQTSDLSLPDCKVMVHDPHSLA

Substance: 2C TCR on 2C CTL (from UniProt A2KF29)
2C CTL mediated lysis of peptide-loaded T2 cells (51Cr release), LD50 of the peptide [1]: 10 ng/mL
2C CTL mediated lysis of peptide-loaded T2 cells (51Cr release), LD50 of the peptide [2]: 0.5 ng/mL and 1 ng/mL
2C CTL mediated lysis of peptide-loaded T2 cells (51Cr release), LD50 of the peptide [3]: 100 ng/mL
2C CTL mediated lysis of p2Ca-loaded T2 L^d cells (51Cr release), LD50 of the peptide [4]: 0.5 ng/mL

MCF [5]: 1 MCF
MCF [6]: 1 MCF
MCF [7]: 3000 MCF
MCF [8]: 36 MCF
MCF [9]: 600 MCF
concentration at which binding was detected [10]: < 1 nM
Substance: soluble divalent 2C TCR/Ig (from UniProt A2KF29)

fold increase of mean channel fluorescence (cells at 27° C. against cells at 37° C.) [11]: 5 fold
fold increase of serologically reactive H-2 L^d on γ-IFN treated cells over untreated cells [12]: 5 to 6 fold
Substance: mAb 30.5.7 (antibody)

From US7973137
